In patent publication US20150376286A1 (Amgen, published 2015):
Changes are numbered by the printed parent chain.

Experiments:
[1] = biological target: human amylin AMY1 receptor (hCTR + hRAMP1) (human, UniProt P30988 25-474); test: cell-based or functional assay
[2] = biological target: human adrenomedullin receptor 1 (hCRLR + hRAMP2) (human, UniProt O60895 43-175); test: cell-based or functional assay
[3] = biological target: T1, cynomolgus CGRP receptor (cynoCRLR + cynoRAMP1) (cynomolgus monkey); test: cell-based or functional assay
T1 chain 1: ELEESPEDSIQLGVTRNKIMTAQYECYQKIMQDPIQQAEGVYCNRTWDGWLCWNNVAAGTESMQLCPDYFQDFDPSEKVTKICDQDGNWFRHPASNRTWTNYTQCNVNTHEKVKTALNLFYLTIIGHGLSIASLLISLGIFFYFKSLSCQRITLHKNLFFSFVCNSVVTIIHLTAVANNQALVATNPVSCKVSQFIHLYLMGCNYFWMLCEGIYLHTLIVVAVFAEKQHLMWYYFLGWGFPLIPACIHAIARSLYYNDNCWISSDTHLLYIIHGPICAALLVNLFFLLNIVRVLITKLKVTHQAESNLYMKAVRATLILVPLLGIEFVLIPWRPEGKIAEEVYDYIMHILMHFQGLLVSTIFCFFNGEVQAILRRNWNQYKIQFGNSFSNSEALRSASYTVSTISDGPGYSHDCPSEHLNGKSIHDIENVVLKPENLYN
T1 chain 2: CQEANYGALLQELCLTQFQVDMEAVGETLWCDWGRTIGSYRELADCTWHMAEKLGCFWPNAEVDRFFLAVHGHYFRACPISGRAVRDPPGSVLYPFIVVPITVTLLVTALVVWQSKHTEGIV

[4] = biological target: human adrenomedullin receptor 2 (hCRLR + hRAMP3) (human, UniProt O60896 24-148); test: cell-based or functional assay
rat CGRP receptor = rat CGRP receptor (rat, UniProt Q63118 24-464; Q9JJ74 27-148); test: cell-based or functional assay
[5] = biological target: T2, human CGRP receptor (CRLR + RAMP1) (human, UniProt Q16602 23-461; O60894 27-148); test: cell-based or functional assay
[6] = biological target: T2, human CGRP receptor (CRLR + RAMP1); test: 125I-CGRP competition binding, HTB-10 cell membranes
Method: (§1) The plates were incubated at room temperature for 2 hours with shaking at 60 rpm, and then the contents of each well were filtered over 0.5% polyethyleneimine (PEI)-treated (for at least one hour) GF/C 96-well filter plates. The GF/C filter plates were washed six times with ice-cold 50 mM Tris, pH 7.5 and dried in an oven at 55° C. for 1 hour. The bottoms of the GF/C plates were then sealed. 40 μl Microscint™ 20 was added to each well, the tops of the GF/C plates were sealed with TopSeal™-A (a press-on adhesive sealing film), and the GF/C plates were counted with TopCount NXT (Packard). The data were analyzed using Prizm (GraphPad Software Inc.)

[7] = biological target: T2, human CGRP receptor (CRLR + RAMP1); test: radioligand competition: 125I-CGRP binding to human CGRP receptor on HTB-10 cell membranes, antibody as competitor
Method: as §1

[8] = biological target: T2, human CGRP receptor (CRLR + RAMP1); test: cell-based or functional assay; remark: listed apart in the source
[9] = biological target: T2, human CGRP receptor (CRLR + RAMP1); test: FACS on AM-1 CHO huCGRP R cells, KinExA n-curve analysis
Method: Briefly, AM-1 CHO huCGRP R-expressing cells, prepared as described above, were plated in 96-well plates at densities of 16,000 or 160,000 cells per well in DMEM medium containing 10% FBS, NEAA, PS, L Glut, NaPyr and 0.05% sodium azide. […] After an overnight incubation at 4° C. in a total volume of 120 μl, on a plate shaker, the cells were washed 2× with PBS+2% FBS, centrifuging and discarding supernatant each time. 100 μl/well of G anti-Hu Fc Cy5 (5 μg/mL; Jackson ImmunoResearch Laboratories Inc., West Grove, Pa., USA) containing 7AAD (5 μl/well) was then added and incubated at 4° C. for 40 min. The cells were washed 2× with PBS+2% FBS, centrifuging and discarding the supernatant each time. 100 μl PBS+2% FBS buffer was then added and analyzed by FACS to determined the binding geomean. The Kd was calculated using KinExA software by taking the negative geomean at each antibody concentration as the amount of free Ab present Rathanaswami, et al., Biochemical and Biophysical Research Communications 334 (2005) 1004-1013.

B1: 1E11 (antibody, human IgG2, lambda, V domains shown)
VH: QVQLVESGGGVVQPGRSLRLSCAASGFTFSSFGMHWVRQAPGKGLEWVAVISFDGSIKYSVDSVKGRFTISRDNSKNTLFLQMNSLRAEDTAVYYCARDRLNYYDSSGYYHYKYYGMAVWGQGTTVTVSS
VL: QSVLTQPPSVSEAPGQKVTISCSGSSSNIGNNYVSWYQQLPGTAPKLLIYDNNKRPSGIPDRFSGSKSGTSATLGITGLQTGDEADYYCGTWDSRLSAVVFGGGTKLTVLG
notes: also called 01E11; 01E11.2
[1]
  cAMP assay IC50: > 1000 nM
[2]
  cAMP assay IC50: > 1000 nM
[3]
  cAMP assay IC50: 2.79 nM
[4]
  cAMP assay IC50: > 1000 nM
Rat CGRP receptor
  cAMP assay IC50: > 1000 nM
[5]
  cAMP assay IC50: 1.77 nM
[6]
  Ki: 0.03 nM
[7]
  IC50 (read off the curve): ~0.03 nM
[8]
  IC50 (read off the curve): ~1 nM

B2: 9D4 (antibody, human IgG2, lambda, V domains shown)
VH: B1 VH
VL: B1 VL with E12A, L40F
notes: also called 09D4; 09D4.2
[9]
  Kd: 2.5 nM
[1]
  cAMP assay IC50: > 1000 nM
[2]
  cAMP assay IC50: > 1000 nM
[3]
  cAMP assay IC50: 2.46 nM
[4]
  cAMP assay IC50: > 1000 nM
Rat CGRP receptor
  cAMP assay IC50: > 1000 nM
[5]
  cAMP assay IC50: 1.4 nM
[6]
  Ki: 0.023 nM

B3: 10E4 (antibody, human IgG2, lambda, V domains shown)
VH: QVQLVQSGAEVKKPGASVKVSCKASGYTFTDYYMYWVRQAPGQGLEWMGWISPNSGGTNYAQKFQGRVTMTRDTSISTAYMELSRLRSDDTAVYYCVRGGYSGYAGLYSHYYGMDVWGQGTTVTVSS
VL: not shown
[1]
  cAMP assay IC50: > 1000 nM
[2]
  cAMP assay IC50: > 1000 nM
[3]
  cAMP assay IC50: 3.23 nM
[4]
  cAMP assay IC50: > 1000 nM
Rat CGRP receptor
  cAMP assay IC50: > 1000 nM

B4: 5F5 (antibody, human IgG2, kappa, V domains shown)
VH: QVQLVESGGGVVQPGRSLRLSCAASGFTFSSYGMHWVRQAPGKGLEWVAVISYDGSHESYADSVKGRFTISRDISKNTLYLQMNSLRAEDTAVYFCARERKRVTMSTLYYYFYYGMDVWGQGTTVTVSS
VL: DIILTQTPLSLSVTPGQPASISCKSSQSLLHSDGKTYLYWYLQKPGQPPQLLIYEVSNRFSGEPDRFSGSGSGTDFTLKISRVEAEDVGTYYCMQSFPLPLTFGGGTKVEIKR
notes: also called 05F5; 05F5.1
[1]
  cAMP assay IC50: > 1000 nM
[2]
  cAMP assay IC50: > 1000 nM
[3]
  cAMP assay IC50: 4.78 nM
[4]
  cAMP assay IC50: > 1000 nM
Rat CGRP receptor
  cAMP assay IC50: > 1000 nM
[5]
  cAMP assay IC50: 4.79 nM
[6]
  Ki: 0.147 nM

B5: 3C8 (antibody, human IgG2, kappa, V domains shown)
VH: B4 VH
VL: B4 VL with T5A, D33A, E63V, T90I
[1]
  cAMP assay IC50: > 1000 nM
[2]
  cAMP assay IC50: > 1000 nM
[3]
  cAMP assay IC50: 5.32 nM
[4]
  cAMP assay IC50: > 1000 nM
Rat CGRP receptor
  cAMP assay IC50: > 1000 nM

B6: 12E8 (antibody, human IgG2, kappa, V domains shown)
VH: B4 VH
VL: B4 VL with I3T, T14S, K35R, T36N, E63L, T90I
notes: also called 12E8.2
[9]
  Kd: 2.3 nM
[1]
  cAMP assay IC50: > 1000 nM
[2]
  cAMP assay IC50: > 1000 nM
[3]
  cAMP assay IC50: 4.13 nM
[4]
  cAMP assay IC50: > 1000 nM
Rat CGRP receptor
  cAMP assay IC50: > 1000 nM
[5]
  cAMP assay IC50: 2.93 nM
[6]
  Ki: 0.097 nM

B7: 13H2 (antibody, human IgG2, kappa, V domains shown)
VH: EVQLVESGGGLVKPGGSLRLSCAASGYTFSTYSMNWVRQAPGKGLEWVSSISSSSSYRYYADSVKGRFTISRDNAKNSLYLQMSSLRAEDTAVYYCAREGVSGSSPYSISWYDYYYGMDVWGQGTTVTVSS
VL: DIQMTQSPSSLSASVGDRVTITCRASQGIRKDLGWYQQKPGKAPKRLIYGASSLQSGVPSRFSGSGSGTEFTLTISSLQPEDFATYYCLQYNSFPWTFGQGTKVEIKR
notes: also called 13H2.2
[1]
  cAMP assay IC50: > 1000 nM
[2]
  cAMP assay IC50: > 1000 nM
[3]
  cAMP assay IC50: 8.41 nM
[4]
  cAMP assay IC50: > 1000 nM
Rat CGRP receptor
  cAMP assay IC50: > 1000 nM
[5]
  cAMP assay IC50: 1.95 nM
[6]
  Ki: 0.033 nM
[7]
  IC50 (read off the curve): ~0.1 nM
[8]
  IC50 (read off the curve): ~6 nM

B8: 2E7 (antibody, human IgG2, kappa, V domains shown)
VH: EVQLLESGGGLVQPGESLRLSCAASGFTFSSYAMSWVRQAPGKGLEWVSAISGSGGRTYYADSVKGRFTISRDNSKNTLYLQMNSLRAEDTAVYYCAKDQREVGPYSSGWYDYYYGMDVWGQGTTVTVSS
VL: B7 VL with K31N, Y36F, G50A, F83L, S93I, F94Y
notes: also called 02E7; 02E7.2
[9]
  Kd: 1.5 nM
[1]
  cAMP assay IC50: > 1000 nM
[2]
  cAMP assay IC50: > 1000 nM
[3]
  cAMP assay IC50: 5.51 nM
[4]
  cAMP assay IC50: > 1000 nM
Rat CGRP receptor
  cAMP assay IC50: > 1000 nM
[5]
  cAMP assay IC50: 6.3 nM
[6]
  Ki: 0.117 nM

B9: 4H6 (antibody, human IgG2, kappa, V domains shown)
VH: EVQLVESGGGLVKPGRSLRLSCTASGFTFGDYAMSWFRQAPGKGLEWIGFIRSRAYGGTPEYAASVKGRFTISRDDSKTIAYLQMNSLKTEDTAVYFCARGRGIAARWDYWGQGTLVTVSS
VL: not shown
notes: also called 04H6; 04H6.1
[9]
  Kd: 2.4 nM
[1]
  cAMP assay IC50: > 1000 nM
[2]
  cAMP assay IC50: > 1000 nM
[3]
  cAMP assay IC50: 5.59 nM
[4]
  cAMP assay IC50: > 1000 nM
Rat CGRP receptor
  cAMP assay IC50: > 1000 nM
[5]
  cAMP assay IC50: 3.78 nM
[6]
  Ki: 0.052 nM
